Test [1] deals with BeWo choriocarcinoma cells. Briefly: Cellular internalization by fluorescence microscopy, BeWo cells. Type of test: cell-based. To be noted: 1 h exposure, imaged 24 h. How it is done:
(§1) FIG. 18 includes images showing the cellular internalization of SynB1-ELP delivered NOX peptide. Rhodamine-labeled SynB1-ELP-NOX was exposed to cells for 1 h, cells were washed, fresh media was returned, and images were collected 24 h after initial exposure.
(§2) It is confirmed that the SynB1-ELP-NOX polypeptide was internalized by cells. Both endothelial cells (HUVECs) and chorionic cells (BeWo choriocarcinoma cells) were exposed to fluorescently labeled SynB1-ELP-NOX for 1 h. The cells were then washed and given fresh media for 24 h.

Test [2] deals with placental chorionic villous explants. Kind of test: ROS production in placental chorionic villous explants, dihydroethidium (DHE) assay. Type of test: cell-based, rat. Particulars: 20 or 50 μM, 1% O2, 48 h. How it is done:
FIG. 19 includes a graph showing inhibition of reactive oxygen species production of placental villous explants. Villous explants were dissected from rat placentas at day 19 of gestation. Explants were grown ex vivo on a bed of Matrigel in cell culture medium. 24 h after equilibration of explants, media was replaced with media plus SynB1-ELP or SynB1-ELP-NOX, and explants were incubated at 37° C. in a 6% or 1% O2 environment for 48 h. ROS was detected by incubation with 5 μM dihydroethdium for 1 hour, and fluorescence was measured using a florescence plate reader. The assay was performed in triplicate, and data represent the mean±s.e. of three independent experiments each performed with 4 explants per treatment group. *p<0.01, one way ANOVA with post-hoc Bonferonni multiple comparison.
Chorionic villous explants were cut on GD19 and cultured ex vivo on Matrigel coated wells with complete cell culture medium. After equilibration, culture medium was replaced with medium containing SynB1-ELP-NOX or the SynB1-ELP control polypeptides at 20 or 50 μM, and explants were incubated at 6% O2 (representing a healthy placenta) or 1% O2 (representing a preeclamptic placenta). After 48 h exposure to hypoxia, detection of ROS was performed using the dihydroethidium (DHE) assay.

The test system of test [3] is endothelial cells (HUVECs). Briefly: Cellular internalization by fluorescence microscopy, HUVECs. Type of test: cell-based, human. To be noted: 1 h exposure, imaged 24 h. How it is done: as §1, §2

B1: SynB1-ELP-NOX: SynB1 peptide fused to the N-terminus of ELP (SEQ ID NO: 4), NOX peptide at the C-terminus; SEQ ID NO: 16 (protein)
chain: MRGGRLSYSRRRFSTSTGRGCGPGVGVPGAGVPGGGVPGAGVPGGGVPGAGVPGGGVPGAGVPGGGVPGAGVPGGGVPGAGVPGGGVPGAGVPGGGVPGAGVPGVGVPGAGVPGGGVPGAGVPGGGVPGAGVPGGGVPGAGVPGGGVPGAGVPGGGVPGAGVPGGGVPGAGVPGGGVPGAGVPGVGVPGAGVPGGGVPGAGVPGGGVPGAGVPGGGVPGAGVPGGGVPGAGVPGGGVPGAGVPGGGVPGAGVPGGGVPGAGVPGVGVPGAGVPGGGVPGAGVPGGGVPGAGVPGGGVPGAGVPGGGVPGAGVPGGGVPGAGVPGGGVPGAGVPGGGVPGAGVPGVGVPGAGVPGGGVPGAGVPGGGVPGAGVPGGGVPGAGVPGGGVPGAGVPGGGVPGAGVPGGGVPGAGVPGGGVPGAGVPGVGVPGAGVPGGGVPGAGVPGGGVPGAGVPGGGVPGAGVPGGGVPGAGVPGGGVPGAGVPGGGVPGAGVPGGGVPGAGVPGVGVPGAGVPGGGVPGAGVPGGGVPGAGVPGGGVPGAGVPGGGVPGAGVPGGGVPGAGVPGGGVPGAGVPGGGVPGAGVPGVGVPGAGVPGGGVPGAGVPGGGVPGAGVPGGGVPGAGVPGGGVPGAGVPGGGVPGAGVPGGGVPGAGVPGGGVPGAGVPGVGVPGAGVPGGGVPGAGVPGGGVPGAGVPGGGVPGAGVPGGGVPGAGVPGGGVPGAGVPGGGVPGAGVPGGGVPGAGVPGVGVPGAGVPGGGVPGAGVPGGGVPGAGVPGGGVPGAGVPGGGVPGAGVPGGGVPGAGVPGGGVPGAGVPGGGVPGAGVPGWPGSGGCSTRIRRQL
modifications: synthetic SynB1-ELP-NOX sequence
For B1, the “internalization in BeWo cells” value in test [1] is reported as “detectable in a punctate cytoplasmic distribution in both cell lines”. Further, the “ROS production of hypoxic explants” value in test [2] is on record as “inhibited this ROS production”. Also, the “internalization in HUVECs” value in test [3] is given as “detectable in a punctate cytoplasmic distribution in both cell lines”.
